Patent publication US9518103B2, “Optogenetic probes for measuring membrane potential” (President and Fellows of Harvard College, priority 2014, dated 2016)
Where “and” joins values, the source holds several entries; their conditions need not be identical. Equal values may be shown once. Entries after “also recorded” stand apart in the source; their conditions may differ.

Tests used:
Type in all cases: cell-based
HEK293 cells = assay: Optical crosstalk of blue illumination into QuasAr fluorescence; details: continuous 640 nm 300 W/cm^2
Excerpt: FIGS. 5A-5B show the quantification of optical crosstalk of blue illumination into QuasAr fluorescence. Illumination sufficient to induce high-frequency trains of action potentials (488 nm, 140 mW/cm2) perturbed fluorescence of QuasArs by <1%. […] HEK293 cells expressing QuasAr1 or QuasAr2 were exposed to continuous excitation at 640 nm (300 W/cm^2) and pulses of illumination at 488 nm (50 ms, 5 Hz). The intensity of the blue pulses increased from 0.06 to 1.8 W/cm^2. […] Illumination with blue light at typical intensity used to excite a blue-light activator (CheRiff) (0.2 W/cm^2) increased QuasAr1 fluorescence by 1.1% and QuasAr2 fluorescence by 0.6%. Illumination at with blue light at 1 W/cm^2 increased QuasAr1 fluorescence by 3.4% and QuasAr2 fluorescence by 2.4%. Error bars represent s.e.m. for n=5 cells for each QuasAr.

HEK293T cells = assay: Simultaneous whole-cell patch clamp electrophysiology and fluorescence in HEK cells (brightness, voltage sensitivity, speed); details: for Brightness (λexc = 640 nm) 0.7 W/cm^2 / Brightness (λexc = 640 nm) 800 W/cm^2 / Sensitivity (ΔF/F per 100 mV): HEK293 cells; for voltage sensitivity (ΔF/F per 100 mV) / brightness relative to wild-type Arch: HEK cells; for brightness compared with corresponding double mutants: eGFP fusions in HEK cells, exc. 640 nm
Description: Simultaneous electrophysiology and fluorescence in HEK cells: HEK293T cells (ATCC CRL-11268) were cultured and transfected following standard protocols.^10 Briefly, HEK-293 cells were grown at 37° C., 5% CO2, in DMEM supplemented with 10% FBS and penicillin-streptomycin. Plasmids were transfected using Transit 293T (Mirus) following the manufacturer's instructions, and assayed 48 hours later. The day before recording, cells were re-plated onto glass-bottom dishes (MatTek) at a density of ˜10,000 cells/cm^2.
Cells were supplemented with retinal by diluting stock retinal solutions (40 mM, DMSO) in growth medium to a final concentration of 5 μM, and then returning the cells to the incubator for 0.5-1 hour. All imaging and electrophysiology were performed in Tyrode buffer (containing, in mM: 125 NaCl, 2.5 KCl, 3 CaCl2, 1 MgCl2, 10 HEPES, 30 glucose pH 7.3, and adjusted to 305-310 mOsm with sucrose). A gap junction blocker, 2-aminoethoxydiphenyl borate (50 μM, Sigma), was added to eliminate electrical coupling between cells.
Filamented glass micropipettes (WPI) were pulled to a tip resistance of 5-10 MΩ, and filled with internal solution containing 125 mM potassium gluconate, 8 mM NaCl, 0.6 mM MgCl2, 0.1 mM CaCl2, 1 mM EGTA, 10 mM HEPES, 4 mM Mg-ATP, 0.4 mM Na-GTP (pH 7.3); adjusted to 295 mOsm with sucrose. Pipettes were positioned with a Sutter MP285 manipulator. Whole-cell, voltage and current clamp recordings were acquired using an […] 700B amplifier (Molecular Devices), filtered at 2 kHz with the internal Bessel filter and digitized with a National Instruments PCIE-6323 acquisition board at 5-10 kHz. Data was only acquired from HEK cells having reversal potentials between −10 and −40 mV, access resistance<25 MΩ and membrane resistance>0.5 GΩ.
Simultaneous whole-cell patch clamp recordings and fluorescence recordings were acquired on a home-built, inverted epifluorescence microscope, described previously^10 and described below in “Apparatus”. For step response measurements, voltage clamp electronics were compensated 90-95%. We examined variants of QuasAr1 with mutations at position 95 (Asn, Cys, Gin, His and Tyr) and position 106 (Arg, Asp, Asn, Cys, Glu, His, Lys and Tyr). These experiments confirmed that histidine at position 106 provided undetectable photocurrent, and the best combination of improved voltage sensitivity, and fast kinetics.
We compared the fluorescence, voltage sensitivity, and speed of the QuasArs to wild-type Arch in HEK cells, using epifluorescence microscopy and whole-cell patch clamp electrophysiology. Under low intensity illumination (640 nm, 500 mW/cm^2), QuasAr1 was 15-fold brighter than wild-type Arch, and QuasAr2 was 3.3-fold brighter (FIG. 1B; Methods).

[1] = test system: cultured rat hippocampal neurons; assay: Photocurrent in cultured rat hippocampal neurons; details: for photocurrent (in words): red (640 nm, 300 W/cm^2, tested up to 900 W/cm^2) or blue (488 nm, 500 mW/cm^2) illumination; for photocurrent: red illumination (640 nm, 300 W/cm^2)
Description: FIGS. 4A-4B show the photophysics of QuasArs in mammalian cells. […] Steady state photocurrents were calculated by averaging the current over the last 0.25 seconds of light exposure and subtracting the holding current (cells held at −65 mV) in the dark. These currents hyperpolarized cells by 25±4 mV and 19±3 mV, respectively. […] The double mutants had mutations at the locations of the proton acceptor (Asp95) and proton donor (Asp106) to the Schiff base. QuasAr1 includes mutations D95H, D106H, and QuasAr2 includes mutations D95Q, D106H. The three additional backbone mutations in the QuasArs (P60S, T80S, F161V) increased brightness relative to the double mutants, Fluorescence of each Arch mutant was measured with excitation at 640 nm and emission from 660-760 nm. To control for variation in expression level, fluorescence was normalized by eGFP fluorescence (λexc=488 nm, λem=510−550 nm). Error bars represent s.e.m. for measurements on n=5-10 cells.
Measurements were performed on primary cultures at 13-15 DIV. Experiments were conducted in Tyrode's solution containing 125 mM NaCl, 2.5 mM KCl, 3 mM CaCl2, 1 mM MgCl2, 10 mM HEPES, 30 mM glucose (pH 7.3) and adjusted to 305-310 mOsm with sucrose. Prior to imaging, neurons were incubated with 5 μM all-trans retinal for 30 minutes and then washed with Tyrode's solution.
Synaptic blockers were added to the imaging medium for measurements of single-cell electrophysiology (Arch photocurrents, and single-cell excitability). The blockers comprised NBQX (10 μM, Tocris), D(−)-2-amino-5-phosphonovaleric acid (APS; […]), and gabazine (SR-95531, 20 μM, Tocris). For measurements of channel rhodopsin photocurrents in neurons, TTX (1 μM, Tocris) was included along with the synaptic blockers to prevent recruitment of voltage gated sodium channels. […] Recordings were terminated if membrane resistance changed by >10%. Experiments were performed at 23° C. under ambient atmosphere unless otherwise noted.

[2] = low intensity illumination (640 nm, 500 mW/cm^2)

| Molecule | increase of fluorescence by blue light (HEK293 cells; 488 nm 0.2 W/cm^2) [%] | increase of fluorescence by blue light (HEK293 cells; 488 nm 1 W/cm^2) [%] | τdown (+30 mV to −70 mV) % τ1 (HEK293T cells; 23° C.) [%] | τdown (+30 mV to −70 mV) τ1 (HEK293T cells; 23° C.) [ms] | τdown (+30 mV to −70 mV) τ2 (HEK293T cells; 23° C.) [ms] | τup (−70 mV to +30 mV) % τ1 (HEK293T cells; 23° C.) [%] | τup (−70 mV to +30 mV) τ1 (HEK293T cells; 23° C.) [ms] | τup (−70 mV to +30 mV) τ2 (HEK293T cells; 23° C.) [ms] | Brightness (λexc = 640 nm) 0.7 W/cm^2 (HEK293T cells; 23° C.) | Brightness (λexc = 640 nm) 800 W/cm^2 (HEK293T cells; 23° C.) | Sensitivity (ΔF/F per 100 mV) (HEK293T cells; 23° C.) [%] | step response time constant (single or first component) (HEK293T cells; 34° C., step −70 mV to +30 mV) [ms] | voltage sensitivity (ΔF/F per 100 mV) (HEK293T cells) [%] | brightness compared with corresponding double mutants (HEK293T cells) | brightness relative to wild-type Arch (HEK293T cells; high intensity (>100 W/cm^2)) | brightness relative to wild-type Arch (HEK293T cells; [2]) [fold] | photocurrent (in words) [1] | photocurrent [1] [pA] | further results |
| --- | --- | --- | --- | --- | --- | --- | --- | --- | --- | --- | --- | --- | --- | --- | --- | --- | --- | --- | --- |
| QuasAr1: Archaerhodopsin 3 variant with mutations P60S, T80S, D95H, D106H, F161V; genetically encoded voltage indicator (protein) MDPIALQAGYDLLGDGRPETLWLGIGTLLMLIGTFYFLVRGWGVTDKDAREYYAVTILVSGIASAAYLSMFFGIGLTEVSVGGEMLDIYYARYAHWLFTTPLLLLHLALLAKVDRVTIGTLVGVDALMIVTGLIGALSHTAIARYSWWLFSTICMIVVLYVLATSLRSAAKERGPEVASTFNTLTALVLVLWTAYPILWIIGTEGAGVVGLGIETLLFMVLDVTAKVGFGFILLRSRAILGDTEAPEPSAGADVSAAD | 1.1 | 3.4 | 88 | 0.07 | 1.9 | 94 | 0.05 | 3.2 | 15.2 | 10.3 | 33 | ~0.05 | 32±3 | significantly brighter than the corresponding double mutants | 2.5 fold | 15 | Neither QuasAr1 nor QuasAr2 generated detectable photocurrent; also recorded: Neither QuasAr1 (n=9 cells) nor QuasAr2 (n=7 cells) generated detectable photocurrents | 0 | response faster than fastest previously reported GEVIs (HEK293T cells): more than 10 fold; response time (HEK293T cells): 50 μs; voltage sensitivity compared with QuasAr2 (HEK293T cells): three-fold less than the sensitivity of QuasAr2; step response time constant (single or first component) (HEK293T cells; room temperature (23° C.), step −70 mV to +30 mV): < 0.05 ms and 0.053 ± 0.002 ms |
| QuasAr2: Archaerhodopsin 3 variant with mutations P60S, T80S, D95Q, D106H, F161V; genetically encoded voltage indicator (protein) MDPIALQAGYDLLGDGRPETLWLGIGTLLMLIGTFYFLVRGWGVTDKDAREYYAVTILVSGIASAAYLSMFFGIGLTEVSVGGEMLDIYYARYAQWLFTTPLLLLHLALLAKVDRVTIGTLVGVDALMIVTGLIGALSHTAIARYSWWLFSTICMIVVLYVLATSLRSAAKERGPEVASTFNTLTALVLVLWTAYPILWIIGTEGAGVVGLGIETLLFMVLDVTAKVGFGFILLRSRAILGDTEAPEPSAGADVSAAD | 0.6 | 2.4 | 80 | 1.0 | 15.9 | 68 | 1.2 | 11.8 | 3.4 | 3.4 | 90 | 0.3 ± 0.05 | 90±2 | significantly brighter than the corresponding double mutants | comparable | 3.3 | Neither QuasAr1 nor QuasAr2 generated detectable photocurrent; also recorded: Neither QuasAr1 (n=9 cells) nor QuasAr2 (n=7 cells) generated detectable photocurrents | 0 | weight of first component of bi-exponential step response (HEK293T cells; 23° C.): 68%; weight of second component of bi-exponential step response (HEK293T cells; 23° C.): 32%; step response time constant (second component) (HEK293T cells; 23° C., step −70 mV to +30 mV): 11.8 ± 1.5 ms; step response time constant (second component) (HEK293T cells; 34° C.): 3.2 ± 0.4 ms; weight of first component of bi-exponential step response (HEK293T cells; 34° C.): 62%; weight of second component of bi-exponential step response (HEK293T cells; 34° C.): 38%; τdown (+30 mV to −70 mV) % τ1 (HEK293T cells; 34° C.): 73%; τdown (+30 mV to −70 mV) τ1 (HEK293T cells; 34° C.): 0.3 ms; τdown (+30 mV to −70 mV) τ2 (HEK293T cells; 34° C.): 4.0 ms; τup (−70 mV to +30 mV) % τ1 (HEK293T cells; 34° C.): 62%; τup (−70 mV to +30 mV) τ1 (HEK293T cells; 34° C.): 0.3 ms; τup (−70 mV to +30 mV) τ2 (HEK293T cells; 34° C.): 3.2 ms |
